Experimental data taken from publication PMC5520057, “Modulation of nongenomic activation of PI3K signalling by tetramerization of N-terminally-cleaved RXRα” (Nature Communications, 2017).
Where “and” joins values, the source holds several entries; their conditions need not be identical. Identical values can stand only once.

B1: His-RXRα-LBD [human] / itself (parent)
chain: TSSANEDMPVERILEAELAVEPKTETYVEANMGLNPSSPNDPVTNICQAADKQLFTLVEWAKRIPHFSELPLDDQVILLRAGWNELLIASFSHRSIAVKDGILLATGLHVHRNSAHSAGVGAIFDRVLTELVSKMRDMQMDKTELGCLRAIVLFNPDSKGLSNPAEVEALREKVYASLEAYCKHKYPEQPGRFAKLLLRLPALRSIGLKCLEHLFFFKLIGDTPIDTFLMEMLEAPHQMT

Variants of: B1
Experiment: non-denaturing polyacrylamide gel electrophoresis, densitometry
Conditions: with itself

| screen value (DMSO (no K-80003, no 9-cis-RA)) | screen value (K-80003) | screen value (K-80003 + 9-cis-RA) | Variant |
| --- | --- | --- | --- |
| 47% and 53% | 55% and 45% |  | TSSANEDMPVERILEAELAVEPKTETYVEANMGLNPSSPNDPVTNICQAADKQLFTLVEWAKRIPHFSELPLDDQVILLRAGWNELLIASFSHRSIAVKDGILLATGLHVHRNSAHSAGVGAIFDRVLTELVSKMRDMQMDKTELGCLRAIVLFNPDSKGLSNPAEVEALREKVYASLEAYCKHKYPEQPGRFAKLLLRLPALRSIGLKCLEHLFFAKLIGDTPIDTFLMEMLEAPHQMT [chain 1 F217A] |
| 53% and 47% | 58% and 42% |  | TSSANEDMPVERILEAELAVEPKTETYVEANMGLNPSSPNDPVTNICQAADKELFTLVEWAKRIPHFSELPLDDQVILLRAGWNELLIASFSHRSIAVKDGILLATGLHVHRNSAHSAGVGAIFDRVLTELVSKMRDMQMDKTELGCLRAIVLFNPDSKGLSNPAEVEALREKVYASLEAYCKHKYPEQPGRFAKLLLRLPALRSIGLKCLEHLFFFKLIGDTPIDTFLMEMLEAPHQMT [chain 1 Q53E] |
| 54% and 46% | 43% and 57% | 59% and 41% | TSSANEDMPVERILEAELAVEPKTETYVEANMGLNPSSPNDPVTNICQAADKQLFTLVEWAKRIPHFSELPLDDQVILLRAGWNELLIASFSHRSIAVKDGILLATGLHVHRNSAHSAGVGAIFDRVLTELVSKMRDMQMDKTELGCLRAIVLFNPDSKGLSNPAEVEALREKVYASLEAYCKHKYPEQPGRFAKLLLRLPALRSIGLKCDEHLFFFKLIGDTPIDTFLMEMLEAPHQMT [chain 1 L211D] |
